This passage reports fold reduction of the affinity against the wild-type pair results from PMC11387744.

The assay addresses KDM2B^F-box-LRRs/SKP1 dimer (UniProt Q8NHM5). Kind of assay: ITC. (In ITC the heat of successive injections is recorded.)

KDM2B^F-box-LRRs/SKP1 dimer, sequence (Q8NHM5 1059-1336, chain 1 of 2): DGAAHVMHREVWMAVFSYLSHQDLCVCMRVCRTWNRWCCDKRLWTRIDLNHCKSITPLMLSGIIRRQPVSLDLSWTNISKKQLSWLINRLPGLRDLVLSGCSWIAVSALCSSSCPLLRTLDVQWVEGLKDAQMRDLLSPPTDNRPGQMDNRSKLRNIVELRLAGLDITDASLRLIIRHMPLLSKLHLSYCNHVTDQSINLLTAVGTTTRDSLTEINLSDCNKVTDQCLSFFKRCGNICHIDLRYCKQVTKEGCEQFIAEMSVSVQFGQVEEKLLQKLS
KDM2B^F-box-LRRs/SKP1 dimer, sequence (P63208 2-163, chain 2 of 2, further chain): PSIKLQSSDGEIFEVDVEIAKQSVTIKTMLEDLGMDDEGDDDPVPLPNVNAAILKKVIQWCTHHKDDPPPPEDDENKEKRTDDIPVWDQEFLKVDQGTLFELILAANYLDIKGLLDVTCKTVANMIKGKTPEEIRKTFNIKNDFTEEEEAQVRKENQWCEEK

For “BCOR^N1607 (D/E on Poly-D/E^2nd (1607–1611) mutated to Ala)/PCGF1^RAWUL (from UniProt Q6W2J9 1607-1755; Q9BSM1 150-255) (complex)”, the fold reduction of the affinity against the wild-type pair was > 2.5 fold.

On to “BCOR^N1607 (D/E on Poly-D/E^3rd (1624–1631) mutated to Ala)/PCGF1^RAWUL (from UniProt Q6W2J9 1607-1755; Q9BSM1 150-255) (complex)”, for which the fold reduction of the affinity against the wild-type pair was > 12 fold.
